# The supplement of paper PMC7877785
# ± gives the uncertainty stated by the source.
# Assay: self-splicing fitness, log relative to wild type (ln ratio); higher = more splicing; Tetrahymena group I intron in knt gene, E. coli kanamycin selection, DiMSum; sequences stand for … in CUCUCU…GGAGGGAAAAGUUAUCAGGCAUGCACCUGGUAGCUAGUCUUUAAACCAAUAGAUUGCAUCGGUUUAAAAGGCAAGACCGUCAAAUUGCGGGAAAGGGGUCAACAGCCGUUCAGUACCAAGUCUCAGGGGAAACUUUGAGAUGGCCUUGCAAAGGGUAUGGUAAUAAGCUGACGGACAUGGUCCUAACCACGCAGCCAAGUCCUAAGUCAACAGAUCUUCUGUUGAUAUGGAUGCAGUUCACAGACUAAAUGUCGGUCGGGGAAGAUGUAUUCUUCUCAUAAGAUAUAGUCGGACCUCUCCUUAAUGGGAGCUAGCGGAUGAAGUGAUGCAACACUGGAGCCGCUGGGAACUAAUUUGUAUGCGAAAGUAUAUUGAUUAGUUUUGGAGUACUCGUGGUCG
# Method in brief: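 Six replicate transformations of E. coli BL21(DE3) with a pET-22b(+) library were grown overnight at 37°C or 30°C. The library randomised all eight P1ex-region intron nucleotides, the intron lying in the knt kanamycin-resistance gene, and plates were LB agar with or without 25 μg/mL kanamycin plus 100 μg/mL carbenicillin, 50 μM IPTG and 0.2% rhamnose. Pooled colonies were amplicon-sequenced on an Illumina HiSeq 2500, and fitness is the DiMSum error-weighted combination of wild-type-normalised replicate fold changes, kanamycin versus none.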
Sequence,self-splicing fitness (ln) (30 °C),self-splicing fitness (ln) (37 °C)
GACAAGCAAUAUUACGGACU,-1.17 ± 0.075,0.137 ± 0.087
ACACAGCAAUAUUACGGCGU,-0.67 ± 0.07,-0.414 ± 0.093
AUUAAGCAAUAUUACGUGGC,-2.43 ± 0.15,-1.71 ± 0.16
UUGUAGCAAUAUUACGCCAA,-1.22 ± 0.13,-0.297 ± 0.13
GUAAAGCAAUAUUACGAGAU,-2.12 ± 0.12,-1.99 ± 0.15
ACUCAGCAAUAUUACGUCCA,-0.69 ± 0.084,-1.36 ± 0.11
UCAGAGCAAUAUUACGGGGA,-1.48 ± 0.11,-1.1 ± 0.13
ACUCAGCAAUAUUACGUGCU,-2.27 ± 0.082,-2.53 ± 0.11
CAUCAGCAAUAUUACGGAGC,-3.44 ± 0.31,-2.1 ± 0.31
GCGUAGCAAUAUUACGGAAU,-2.67 ± 0.33,-0.8 ± 0.2
ACGGAGCAAUAUUACGUUUG,-2.3 ± 0.12,-2.31 ± 0.19
AGCCAGCAAUAUUACGGGCU,-4.03 ± 0.25,-2.5 ± 0.21
UGGCAGCAAUAUUACGUGCC,–,-1.69 ± 0.26
CACAAGCAAUAUUACGCACG,-0.378 ± 0.067,-0.684 ± 0.075
GGGCAGCAAUAUUACGGGUC,-2.9 ± 0.25,-2.02 ± 0.23
UGUCAGCAAUAUUACGUAGG,-0.865 ± 0.079,-0.275 ± 0.1
GAGAAGCAAUAUUACGAGCA,-1.79 ± 0.15,-0.727 ± 0.14
CUGCAGCAAUAUUACGUAGA,-3.08 ± 0.15,-3.35 ± 0.3
GUAAAGCAAUAUUACGGUUU,-0.83 ± 0.055,0.0852 ± 0.077
AAAGAGCAAUAUUACGUUGC,-3.79 ± 0.39,-1.93 ± 0.23
AAUGAGCAAUAUUACGGUAG,-4.54 ± 0.32,-3.47 ± 0.24
UCUAAGCAAUAUUACGCUGU,-2.47 ± 0.18,-2.59 ± 0.21
GCUGAGCAAUAUUACGAAAC,-2.42 ± 0.17,0.274 ± 0.14
AACUAGCAAUAUUACGCCUC,-2.29 ± 0.3,-0.975 ± 0.24
GUGCAGCAAUAUUACGCGCU,-3.16 ± 0.48,-1.77 ± 0.36

Sequence,self-splicing fitness (ln) (30 °C),self-splicing fitness (ln) (37 °C)
CUUAAGCAAUAUUACGAAUG,-0.541 ± 0.092,-0.0976 ± 0.12
CAUUAGCAAUAUUACGACGC,-1.73 ± 0.39,–
GGACAGCAAUAUUACGGCCG,-0.0795 ± 0.14,-0.000523 ± 0.19
GUCAAGCAAUAUUACGAUGC,-1.3 ± 0.098,-0.442 ± 0.11
AAGGAGCAAUAUUACGGUUG,-2.52 ± 0.17,-3.27 ± 0.32
AAUGAGCAAUAUUACGGAUG,-3.35 ± 0.17,-2.23 ± 0.22
AGUUAGCAAUAUUACGGGUU,-1.38 ± 0.11,-1.53 ± 0.15
CCCUAGCAAUAUUACGCCUC,-3.29 ± 0.27,-3.81 ± 0.31
CGGCAGCAAUAUUACGUCAG,-2.04 ± 0.099,-0.000984 ± 0.1
UGUAAGCAAUAUUACGUAUA,-1.21 ± 0.097,-0.761 ± 0.12
AACUAGCAAUAUUACGUCUG,-1.86 ± 0.088,-1.37 ± 0.088
AAAAAGCAAUAUUACGAACU,-0.488 ± 0.07,-0.079 ± 0.087
UCGCAGCAAUAUUACGUAUA,-1.82 ± 0.11,-0.691 ± 0.12
CAUCAGCAAUAUUACGUCUA,-2.35 ± 0.095,-1.58 ± 0.08
AAAGAGCAAUAUUACGUCGG,-3.89 ± 0.24,-1.71 ± 0.2
UUGAAGCAAUAUUACGUAUC,–,-1.93 ± 0.42
AAGUAGCAAUAUUACGUCAC,-3.26 ± 0.15,-3.73 ± 0.22
GAAGAGCAAUAUUACGAUUG,-2.53 ± 0.29,-2.4 ± 0.39
GACUAGCAAUAUUACGUCUA,-2.89 ± 0.2,-0.852 ± 0.12
AAGUAGCAAUAUUACGGGGA,-2.42 ± 0.18,-1.74 ± 0.17
AGUAAGCAAUAUUACGGGUG,-3.13 ± 0.18,-0.695 ± 0.11
CAAAAGCAAUAUUACGACUC,-1.44 ± 0.11,-0.245 ± 0.13
UGUUAGCAAUAUUACGUCAU,-2.42 ± 0.3,-1.35 ± 0.24
AGCCAGCAAUAUUACGCUCC,-2.35 ± 0.16,-2.51 ± 0.21
UCCGAGCAAUAUUACGAGGG,-4.27 ± 0.25,-1.93 ± 0.22

Sequence,self-splicing fitness (ln) (30 °C),self-splicing fitness (ln) (37 °C)
CUCGAGCAAUAUUACGACAU,-3.527 ± 0.027,-2.07 ± 0.038
UCUCAGCAAUAUUACGAUAU,-2.12 ± 0.14,-1.75 ± 0.18
ACCUAGCAAUAUUACGCGUU,-2.76 ± 0.099,-0.77 ± 0.085
CAGGAGCAAUAUUACGUAGG,-0.929 ± 0.1,0.172 ± 0.11
UAUGAGCAAUAUUACGGACA,-2.64 ± 0.35,-2.28 ± 0.29
CCUAAGCAAUAUUACGUGCA,-3.34 ± 0.18,-1.91 ± 0.17
UGCGAGCAAUAUUACGUCCU,-2.35 ± 0.14,-0.627 ± 0.15
GCUCAGCAAUAUUACGAACG,-0.679 ± 0.15,-0.216 ± 0.17
UUCCAGCAAUAUUACGCCGG,-3.4 ± 0.33,-2.98 ± 0.48
CGGCAGCAAUAUUACGUUCC,-2.59 ± 0.14,-1.77 ± 0.21
UUCGAGCAAUAUUACGCCUC,-3.3 ± 0.4,-1.3 ± 0.4
UAGCAGCAAUAUUACGCCUG,-1.79 ± 0.11,-0.602 ± 0.13
UUUCAGCAAUAUUACGUCAG,-0.968 ± 0.089,-0.726 ± 0.12
AAGUAGCAAUAUUACGAGAG,-3.09 ± 0.22,-1.05 ± 0.21
UGUUAGCAAUAUUACGGAUC,-2.29 ± 0.35,-1.81 ± 0.27
UGCAAGCAAUAUUACGUUAG,-2.79 ± 0.14,-2.02 ± 0.15
GUUGAGCAAUAUUACGUAUC,-2.91 ± 0.15,-1.15 ± 0.15
CUUUAGCAAUAUUACGCCAA,-2.63 ± 0.37,–
UGCCAGCAAUAUUACGUGUA,-1.26 ± 0.058,-0.551 ± 0.059
GCUCAGCAAUAUUACGAGAU,-1.4 ± 0.077,-0.431 ± 0.078
UCCUAGCAAUAUUACGUCUC,-3.82 ± 0.23,-2.52 ± 0.21
AAAAAGCAAUAUUACGCACG,-1.4 ± 0.094,-0.508 ± 0.14
UUCAAGCAAUAUUACGCGAG,-2.19 ± 0.096,-1.33 ± 0.1
GAGCAGCAAUAUUACGUCUC,-2.48 ± 0.15,-2.23 ± 0.22
CUCAAGCAAUAUUACGACCA,–,-0.985 ± 0.26

Sequence,self-splicing fitness (ln) (30 °C),self-splicing fitness (ln) (37 °C)
AAUCAGCAAUAUUACGCUAC,-2.83 ± 0.23,-2.22 ± 0.27
UGGAAGCAAUAUUACGAUCC,-2.44 ± 0.47,-2.1 ± 0.41
GCACAGCAAUAUUACGGGCG,-1.4 ± 0.071,0.0832 ± 0.081
UGUUAGCAAUAUUACGGUUC,-1.02 ± 0.24,-1.25 ± 0.48
CCAAAGCAAUAUUACGGCAC,-4.07 ± 0.24,-2.89 ± 0.21
GAACAGCAAUAUUACGCUUG,-0.92 ± 0.072,-0.731 ± 0.087
CUCCAGCAAUAUUACGUAAU,-4.88 ± 0.23,-3.21 ± 0.2
UAGAAGCAAUAUUACGAUGA,-0.692 ± 0.13,-0.446 ± 0.1
CGCUAGCAAUAUUACGGUUC,-2.13 ± 0.21,-0.893 ± 0.26
AUGUAGCAAUAUUACGAACC,-1 ± 0.18,-0.513 ± 0.22
GGGAAGCAAUAUUACGGGUG,-2.68 ± 0.13,-2.12 ± 0.18
GAAUAGCAAUAUUACGCUUC,–,-1.83 ± 0.44
UAAAAGCAAUAUUACGCUAU,-2.11 ± 0.15,-2.2 ± 0.19
CGGGAGCAAUAUUACGAUGC,-3.44 ± 0.2,-2.91 ± 0.4
GCACAGCAAUAUUACGGAGU,-1.69 ± 0.05,-0.838 ± 0.061
CGGUAGCAAUAUUACGCAAC,–,-1.42 ± 0.35
GGGAAGCAAUAUUACGGUUG,-4.02 ± 0.33,-2.74 ± 0.22
GCCGAGCAAUAUUACGUUCG,-2.72 ± 0.26,-2 ± 0.34
GAUUAGCAAUAUUACGUGCG,-2.8 ± 0.16,0.0923 ± 0.12
ACCGAGCAAUAUUACGCAUG,-2.69 ± 0.13,-2.47 ± 0.21
CUACAGCAAUAUUACGUUGU,-3.66 ± 0.14,-3.95 ± 0.21
AUCGAGCAAUAUUACGCUUC,–,-3.02 ± 0.44
GGGCAGCAAUAUUACGGGGU,–,-2.84 ± 0.34
